Results on two molecules are retold here after patent US12449421 (SICHUAN CANCER HOSPITAL, dated 2025).

Assay [1] concerns the target CD79B protein as expressed in Daudi cells and diffuse large B-cell lymphoma tissue (UniProt P40259). The assay can be described thus: immunohistochemistry on 69 diffuse large B-cell lymphoma tissue cases; share of cases stained positive.
Assay [2] deals with recombinant human CD79B extracellular domain (amino acids 29-159), huCD79B (human) (UniProt P40259). The experiment in a line: Biacore SPR, antibody captured on Protein A chip, huCD79B as analyte, 1:1 kinetic model. In general terms: In SPR one partner is held on a chip, and binding of the other changes the refractive index at the surface.
Assay [3] has as its target T1, recombinant human CD79B extracellular domain (amino acids 29-159), huCD79B (human, UniProt P40259 29-159).
T1 construct: Immunogen and SPR analyte; No tag or fusion partner is stated; also called human CD79B antigen; CD79B antigen
T1 sequence: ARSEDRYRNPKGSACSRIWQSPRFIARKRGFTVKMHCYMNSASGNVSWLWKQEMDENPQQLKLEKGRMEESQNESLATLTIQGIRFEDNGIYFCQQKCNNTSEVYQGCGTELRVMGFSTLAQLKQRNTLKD
Described as above. Here is the method:
The ability of the antibody to bind to the antigen is characterized using Biacore™ Surface Plasmon Resonance (SPR). Specifically, a Protein A chip was used (with channel 1 as the reference channel and channel 2 as the ligand channel). The antibody was immobilized as the ligand in channel 2 of the Protein A chip at a concentration of 10 µg/ml, with an association time of 30 seconds and a flow rate of […].
In this embodiment, the analyte was flowed through both channel 1 and channel 2, with an association time of 60 seconds, a dissociation time of 90 seconds, and a flow rate of 30 µl/min. After the analyte injection was completed, the chip surface was regenerated using glycine buffer with a pH of 1.5. The ligand was immobilized before each analyte injection, and the chip surface was regenerated with the regeneration solution after the analyte injection was completed.
The affinity of the CD79B antibody for human CD79B antigen at the different concentrations mentioned above was determined using Biacore™ SPR. The corresponding analysis software was used to analyze the binding and dissociation with a 1:1 kinetic model.

By Kd is commonly meant the free concentration of one partner at which half of the binding sites on the other are occupied at equilibrium, for simple one-to-one binding. Broadly, the koff is the first-order rate constant of dissociation. As a reminder, the kon is the second-order rate constant of association. In assay [1], “commercially available CD79B antibody (Abcam, EPR6861)” yielded a Pos. Rate (share of IHC-positive cases) of 100%. In assay [2], the Kd amounted to 19.3 nM, the koff amounted to 0.00547 s⁻¹ and the kon came to 283000 M⁻¹ s⁻¹.

B1: LBP2-CD79B (anti-CD79B recombinant rabbit monoclonal antibody) (antibody, V domains shown)
VH: QSLEESGGRLVTPGGSLTLTCTVSGIDLSTNVMRWVRQAPGKGLEWIGSMLISGNIYYASWAKGRLTISKTSSTTVDLKMTSLTAADTATYFCTRGRLWGQGTLVTVSS
VL: AQVLTQTPSSVSAAVGGTVTINCQSSQSVWANNYLAWYQQKPGQPPKILIASASTLASGVSSRFKGSGSGTQFTLTISDVQCDDAATYYCLGSYDCSSADCNAFGGGTEVVVKG
notes: the light chain variable region begins QVLTQTP; also called Anti-CD79B Protein Monoclonal Antibody; LBP2-CD79B monoclonal antibody
For B1, in assay [3], the Kd was 0.877 nM, the koff was 0.000775 s⁻¹ and the kon worked out at 844000 M⁻¹ s⁻¹.
